One molecule from patent EP4442707 can be followed below.

One test has as its target T1, dog serum albumin (Canis lupus familiaris, UniProt P49822).
T1 chain: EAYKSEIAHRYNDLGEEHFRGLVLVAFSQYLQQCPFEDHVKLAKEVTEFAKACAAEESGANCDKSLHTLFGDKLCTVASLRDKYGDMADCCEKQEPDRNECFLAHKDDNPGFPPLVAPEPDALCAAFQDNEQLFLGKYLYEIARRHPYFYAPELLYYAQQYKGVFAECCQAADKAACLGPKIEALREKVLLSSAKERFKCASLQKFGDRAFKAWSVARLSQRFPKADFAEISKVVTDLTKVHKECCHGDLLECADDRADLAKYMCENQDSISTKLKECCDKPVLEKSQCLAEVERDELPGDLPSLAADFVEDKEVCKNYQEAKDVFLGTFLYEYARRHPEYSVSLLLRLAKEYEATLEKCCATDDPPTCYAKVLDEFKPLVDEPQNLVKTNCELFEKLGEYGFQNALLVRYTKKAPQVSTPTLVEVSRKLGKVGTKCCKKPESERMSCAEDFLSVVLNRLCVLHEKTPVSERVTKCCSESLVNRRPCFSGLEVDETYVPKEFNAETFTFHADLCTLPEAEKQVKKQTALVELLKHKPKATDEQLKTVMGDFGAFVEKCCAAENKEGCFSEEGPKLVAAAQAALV
Description: SPR pH 7.4.

A further test addresses mouse serum albumin (Mus musculus, UniProt P07724). Description: SPR pH 7.4.
The next test has as its target T2, rabbit serum albumin (Oryctolagus cuniculus, UniProt P49065).
T2 chain: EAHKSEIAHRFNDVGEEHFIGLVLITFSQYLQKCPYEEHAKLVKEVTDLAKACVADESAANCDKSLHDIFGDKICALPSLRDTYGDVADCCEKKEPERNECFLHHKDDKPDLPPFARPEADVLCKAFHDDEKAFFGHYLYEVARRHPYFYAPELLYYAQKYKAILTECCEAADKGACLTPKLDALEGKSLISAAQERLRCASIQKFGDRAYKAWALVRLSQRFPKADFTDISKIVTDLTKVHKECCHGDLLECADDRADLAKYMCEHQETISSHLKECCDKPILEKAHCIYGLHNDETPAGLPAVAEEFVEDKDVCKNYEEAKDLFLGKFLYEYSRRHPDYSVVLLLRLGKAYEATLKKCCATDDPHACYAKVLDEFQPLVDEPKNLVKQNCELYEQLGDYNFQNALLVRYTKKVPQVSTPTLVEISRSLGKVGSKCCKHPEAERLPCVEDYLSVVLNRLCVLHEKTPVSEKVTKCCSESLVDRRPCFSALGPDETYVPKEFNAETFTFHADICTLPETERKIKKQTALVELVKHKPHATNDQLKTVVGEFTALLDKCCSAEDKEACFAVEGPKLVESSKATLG
Briefly: SPR pH 7.4.

A further test deals with bovine serum albumin (Bos taurus, UniProt P02769). Briefly: SPR pH 7.4.
A further test concerns the target T3, cynomolgus serum albumin (Macaca fascicularis, UniProt A2V9Z4).
T3 chain: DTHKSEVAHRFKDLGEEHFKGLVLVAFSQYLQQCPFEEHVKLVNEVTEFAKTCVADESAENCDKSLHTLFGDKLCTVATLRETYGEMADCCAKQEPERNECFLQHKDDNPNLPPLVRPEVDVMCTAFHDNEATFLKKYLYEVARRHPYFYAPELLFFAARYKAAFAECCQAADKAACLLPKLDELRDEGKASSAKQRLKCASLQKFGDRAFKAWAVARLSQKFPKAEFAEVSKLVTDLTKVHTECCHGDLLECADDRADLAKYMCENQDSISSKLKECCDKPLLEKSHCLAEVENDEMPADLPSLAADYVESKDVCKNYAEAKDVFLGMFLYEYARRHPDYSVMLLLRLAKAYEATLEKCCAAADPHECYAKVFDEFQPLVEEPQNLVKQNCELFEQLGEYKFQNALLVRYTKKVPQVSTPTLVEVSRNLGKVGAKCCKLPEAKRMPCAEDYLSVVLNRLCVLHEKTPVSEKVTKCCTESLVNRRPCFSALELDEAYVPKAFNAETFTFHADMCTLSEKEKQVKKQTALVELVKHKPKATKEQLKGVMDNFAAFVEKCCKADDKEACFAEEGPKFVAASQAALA
Briefly: SPR pH 7.4.

Test [1] addresses T4, human serum albumin (Homo sapiens, UniProt P02768). Description: SPR pH 7.4.
The next test deals with T5, sheep serum albumin (Ovis aries, UniProt P14639).
T5 chain: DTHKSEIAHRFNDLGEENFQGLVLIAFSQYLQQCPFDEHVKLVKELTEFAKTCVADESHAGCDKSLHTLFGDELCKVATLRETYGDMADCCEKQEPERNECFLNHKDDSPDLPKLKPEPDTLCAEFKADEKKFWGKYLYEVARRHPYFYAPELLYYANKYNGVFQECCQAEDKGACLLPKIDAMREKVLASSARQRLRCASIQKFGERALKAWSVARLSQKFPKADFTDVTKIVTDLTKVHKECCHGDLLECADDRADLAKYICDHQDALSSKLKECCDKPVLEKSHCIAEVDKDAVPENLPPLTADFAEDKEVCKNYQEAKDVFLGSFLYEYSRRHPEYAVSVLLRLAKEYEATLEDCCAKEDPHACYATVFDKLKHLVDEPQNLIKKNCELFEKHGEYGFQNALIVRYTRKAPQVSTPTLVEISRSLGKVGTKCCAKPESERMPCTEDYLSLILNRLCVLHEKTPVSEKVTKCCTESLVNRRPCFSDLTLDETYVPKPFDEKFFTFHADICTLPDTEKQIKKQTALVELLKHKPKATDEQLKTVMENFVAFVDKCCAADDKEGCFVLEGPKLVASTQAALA
Briefly: SPR pH 7.4.

Another test deals with T6, rat serum albumin (Rattus norvegicus, UniProt P02770).
T6 chain: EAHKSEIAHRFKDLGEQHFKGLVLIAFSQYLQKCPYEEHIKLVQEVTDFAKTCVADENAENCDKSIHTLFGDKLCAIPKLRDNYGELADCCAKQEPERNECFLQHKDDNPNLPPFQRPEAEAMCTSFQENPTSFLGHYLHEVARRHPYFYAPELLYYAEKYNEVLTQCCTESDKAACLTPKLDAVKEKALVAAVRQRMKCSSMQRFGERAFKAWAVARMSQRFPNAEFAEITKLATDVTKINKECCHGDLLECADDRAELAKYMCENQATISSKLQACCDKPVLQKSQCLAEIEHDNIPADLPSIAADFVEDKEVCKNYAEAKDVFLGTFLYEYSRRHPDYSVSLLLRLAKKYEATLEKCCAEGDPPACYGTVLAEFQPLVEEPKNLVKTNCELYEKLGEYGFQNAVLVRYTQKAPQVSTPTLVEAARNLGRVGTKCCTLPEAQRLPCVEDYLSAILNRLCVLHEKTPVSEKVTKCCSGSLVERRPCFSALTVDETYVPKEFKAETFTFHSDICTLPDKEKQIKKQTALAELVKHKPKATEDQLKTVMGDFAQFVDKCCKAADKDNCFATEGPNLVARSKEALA
Briefly: SPR pH 7.4.

Test [2] concerns the target T4, human serum albumin. Description: SPR pH 6.0.
In test [3] the target is T4, human serum albumin. Briefly: SPR pH 5.0.
Test [4] has as its target T4, human serum albumin. Briefly: SPR pH 7.4. The source holds these as a separate data set.
The target of another test is T7, pig serum albumin (Sus scrofa, UniProt P08835).
T7 chain: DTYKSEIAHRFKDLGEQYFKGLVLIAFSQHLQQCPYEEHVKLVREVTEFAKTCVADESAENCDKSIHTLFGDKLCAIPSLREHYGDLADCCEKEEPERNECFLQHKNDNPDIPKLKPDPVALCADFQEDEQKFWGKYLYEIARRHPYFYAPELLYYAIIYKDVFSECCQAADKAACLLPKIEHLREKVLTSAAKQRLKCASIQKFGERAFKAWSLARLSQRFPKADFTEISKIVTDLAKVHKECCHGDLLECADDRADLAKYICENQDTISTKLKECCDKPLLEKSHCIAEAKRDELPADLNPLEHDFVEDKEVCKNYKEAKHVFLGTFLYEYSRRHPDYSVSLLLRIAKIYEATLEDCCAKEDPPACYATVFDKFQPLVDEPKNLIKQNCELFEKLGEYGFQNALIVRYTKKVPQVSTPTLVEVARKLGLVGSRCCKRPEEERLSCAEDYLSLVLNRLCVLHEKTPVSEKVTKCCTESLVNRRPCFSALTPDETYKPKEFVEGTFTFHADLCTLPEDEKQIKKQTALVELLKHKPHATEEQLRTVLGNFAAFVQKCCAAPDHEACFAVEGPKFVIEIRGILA
Briefly: SPR pH 7.4.

B1: SEQ ID NO:19 serum albumin binder (T023500029) (antibody, V domains shown)
VH: EVQLVESGGGVVQPGDSLRLSCAASGGTFSTYVMGWFRQAPGKEREFVSAISQNSIHTYYANSVKGRFTISRDNSKNTVYLQLNSLRPEDTALYYCAASRFTSWYTADYEYDYWGQGTLVTVSS
In the case of B1, the Kd is 1.2 nM in the test with dog serum albumin; 0.27 nM with mouse serum albumin; 0.45 nM with cynomolgus serum albumin; 0.067 nM with rat serum albumin; 0.44 nM with human serum albumin [4]; 45 nM with pig serum albumin. Further, the binding result with rabbit serum albumin, in the test with bovine serum albumin and in the test with sheep serum albumin was “no binding” in each case. Also, the values for the koff with human serum albumin [1], with human serum albumin [2] and in the test with human serum albumin [3] were 0.0002 s⁻¹, 0.00032 s⁻¹ and 0.00051 s⁻¹, respectively.
